B1: Transcription factor 12 (Homo sapiens), Q99081 (parent)
chain: MNPQQQRMAAIGTDKELSDLLDFSAMFSPPVNSGKTRPTTLGSSQFSGSGIDERGGTTSWGTSGQPSPSYDSSRGFTDSPHYSDHLNDSRLGAHEGLSPTPFMNSNLMGKTSERGSFSLYSRDTGLPGCQSSLLRQDLGLGSPAQLSSSGKPGTAYYSFSATSSRRRPLHDSAALDPLQAKKVRKVPPGLPSSVYAPSPNSDDFNRESPSYPSPKPPTSMFASTFFMQDGTHNSSDLWSSSNGMSQPGFGGILGTSTSHMSQSSSYGNLHSHDRLSYPPHSVSPTDINTSLPPMSSFHRGSTSSSPYVAASHTPPINGSDSILGTRGNAAGSSQTGDALGKALASIYSPDHTSSSFPSNPSTPVGSPSPLTGTSQWPRPGGQAPSSPSYENSLHSLQSRMEDRLDRLDDAIHVLRNHAVGPSTSLPAGHSDIHSLLGPSHNAPIGSLNSNYGGSSLVASSRSASMVGTHREDSVSLNGNHSVLSSTVTTSSTDLNHKTQENYRGGLQSQSGTVVTTEIKTENKEKDENLHEPPSSDDMKSDDESSQKDIKVSSRGRTSSTNEDEDLNPEQKIEREKERRMANNARERLRVRDINEAFKELGRMCQLHLKSEKPQTKLLILHQAVAVILSLEQQVRERNLNPKAACLKRREEEKVSAVSAEPPTTLPGTHPGLSETTNPMGHM
partner: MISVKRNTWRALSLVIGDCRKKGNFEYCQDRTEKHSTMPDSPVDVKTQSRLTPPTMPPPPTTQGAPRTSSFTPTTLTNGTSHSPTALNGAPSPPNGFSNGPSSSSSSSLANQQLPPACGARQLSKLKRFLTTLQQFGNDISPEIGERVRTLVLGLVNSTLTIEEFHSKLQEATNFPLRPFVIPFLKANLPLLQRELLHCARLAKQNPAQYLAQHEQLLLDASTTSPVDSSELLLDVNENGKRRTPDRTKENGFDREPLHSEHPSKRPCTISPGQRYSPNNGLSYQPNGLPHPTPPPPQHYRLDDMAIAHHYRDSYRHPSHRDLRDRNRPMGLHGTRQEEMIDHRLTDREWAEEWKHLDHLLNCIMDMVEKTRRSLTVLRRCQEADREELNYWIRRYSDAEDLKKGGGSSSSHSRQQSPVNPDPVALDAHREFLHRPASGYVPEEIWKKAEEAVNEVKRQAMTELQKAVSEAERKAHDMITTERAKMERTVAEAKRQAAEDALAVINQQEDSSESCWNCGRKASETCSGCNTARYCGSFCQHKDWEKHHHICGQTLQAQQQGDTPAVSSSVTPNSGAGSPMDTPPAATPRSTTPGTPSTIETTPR
B2: Alpha-taxilin (Homo sapiens), P40222 (parent)
chain: MKNQDKKNGAAKQSNPKSSPGQPEAGPEGAQERPSQAAPAVEAEGPGSSQAPRKPEGAQARTAQSGALRDVSEELSRQLEDILSTYCVDNNQGGPGEDGAQGEPAEPEDAEKSRTYVARNGEPEPTPVVNGEKEPSKGDPNTEEIRQSDEVGDRDHRRPQEKKKAKGLGKEITLLMQTLNTLSTPEEKLAALCKKYAELLEEHRNSQKQMKLLQKKQSQLVQEKDHLRGEHSKAVLARSKLESLCRELQRHNRSLKEEGVQRAREEEEKRKEVTSHFQVTLNDIQLQMEQHNERNSKLRQENMELAERLKKLIEQYELREEHIDKVFKHKDLQQQLVDAKLQQAQEMLKEAEERHQREKDFLLKEAVESQRMCELMKQQETHLKQQLALYTEKFEEFQNTLSKSSEVFTTFKQEMEKMTKKIKKLEKETTMYRSRWESSNKALLEMAEEKTVRDKELEGLQVKIQRLEKLCRALQTERNDLNKRVQDLSAGGQGSLTDSGPERRPEGPGAQAPSSPRVTEAPCYPGAPSTEASGQTGPQEPTSARA
partner: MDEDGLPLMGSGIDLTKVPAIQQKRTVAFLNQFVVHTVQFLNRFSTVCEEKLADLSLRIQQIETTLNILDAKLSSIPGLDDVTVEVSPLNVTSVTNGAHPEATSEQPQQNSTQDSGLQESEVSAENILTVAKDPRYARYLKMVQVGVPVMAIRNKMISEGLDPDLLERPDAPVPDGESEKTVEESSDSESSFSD
B3: Microtubule-associated tumor suppressor candidate 2 (Homo sapiens), Q5JR59-3 (parent)
chain: MGHCCCKPYNCLQCLDKTNESALVKEKELSIELANIRDEVAFHTAKCEKLQKEKEELERRFEDEVKRLGWQQQAELQELEERLQLQFEAEMARLQEEHGDQLLSIRCQHQEQVEDLTASHDAALLEMENNHTVAITILQDDHDHKVQELMSTHELEKKELEENFEKLRLSLQDQVDTLTFQSQSLRDRARRFEEALRKNTEEQLEIALAPYQHLEEDMKSLKQVLEMKNQQIHEQEKKILELEKLAEKNIILEEKIQVLQQQNEDLKARIDQNTVVTRQLSEENANLQEYVEKETQEKKRLSRTNEELLWKLQTGDPTSPIKLSPTSPVYRGSSSGPSSPARVSTTPR
partner: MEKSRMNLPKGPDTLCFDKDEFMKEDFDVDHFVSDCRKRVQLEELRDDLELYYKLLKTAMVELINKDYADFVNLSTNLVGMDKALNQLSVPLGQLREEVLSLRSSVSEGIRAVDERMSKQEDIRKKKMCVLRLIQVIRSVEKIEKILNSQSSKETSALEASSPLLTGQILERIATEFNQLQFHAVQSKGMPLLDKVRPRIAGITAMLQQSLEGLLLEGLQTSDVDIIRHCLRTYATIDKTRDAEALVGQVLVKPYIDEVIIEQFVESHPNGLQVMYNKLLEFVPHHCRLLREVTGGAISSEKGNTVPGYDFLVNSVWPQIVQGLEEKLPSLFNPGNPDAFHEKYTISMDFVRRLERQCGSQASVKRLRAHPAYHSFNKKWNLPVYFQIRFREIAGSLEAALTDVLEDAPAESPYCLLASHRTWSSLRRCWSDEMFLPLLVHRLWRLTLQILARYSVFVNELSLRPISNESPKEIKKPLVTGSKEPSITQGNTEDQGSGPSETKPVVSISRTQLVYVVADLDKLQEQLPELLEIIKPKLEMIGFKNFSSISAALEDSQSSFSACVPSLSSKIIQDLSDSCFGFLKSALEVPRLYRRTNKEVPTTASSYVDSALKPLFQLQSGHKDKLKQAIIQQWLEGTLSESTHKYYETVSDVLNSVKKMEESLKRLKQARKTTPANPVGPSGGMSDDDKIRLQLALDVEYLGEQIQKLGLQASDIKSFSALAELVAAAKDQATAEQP
B4: Beta-taxilin (Homo sapiens), Q8N3L3 (parent)
chain: MEANHSEQLSAERQSTPPGDSSSLPSHNGLEKEDGQDSPTPVQPPEKEASVHPDISEELNRQLEDIINTYGSAASTAGKEGSARASEQPENAESPDNEDGDCEETTEEAGREPVASGEPPTVKEPVSNKEQKLEKKILKGLGKEANLLMQNLNKLQTPEEKFDFLFKKYAELLDEHRTEQKKLKLLQKKQVQIQKEKDQLQGEHSRAILARSKLESLCRELQRHNKTLKEEALQRAREEEEKRKEITSHFQSTLTDIQGQIEQQSERNMKLCQENTELAEKLKSIIDQYELREEHLDKIFKHRELQQKLVDAKLEQAQEMMKEAEERHKREKEYLLNQAAEWKLQAKVLKEQETVLQAQLTLYSGRFEEFQSTLTKSNEVFATFKQEMDKTTKKMKKLEKDTATWKARFENCNKALLDMIEEKALRAKEYECFVMKIGRLENLCRALQEERNELHKKIRDAEISEKDDQSQHNSDEEPESNVSVDQEIDAEEVNSVQTAVKNLATAFMIIHHPESTPHQSKETQPEIGSSQESADAALKEPEQPPLIPSRDSESPLPPLTPQAEAEGGSDAEPPSKASNSPAGLGAETQCEGLPVGAQADQASWKPEAEASGQAPQAPTEASLQKMEADVPAPACAAEEHVAAMVPACEPSRQPPRAAAEELPVGASAGPQPRNVADTNLEGVD
partner: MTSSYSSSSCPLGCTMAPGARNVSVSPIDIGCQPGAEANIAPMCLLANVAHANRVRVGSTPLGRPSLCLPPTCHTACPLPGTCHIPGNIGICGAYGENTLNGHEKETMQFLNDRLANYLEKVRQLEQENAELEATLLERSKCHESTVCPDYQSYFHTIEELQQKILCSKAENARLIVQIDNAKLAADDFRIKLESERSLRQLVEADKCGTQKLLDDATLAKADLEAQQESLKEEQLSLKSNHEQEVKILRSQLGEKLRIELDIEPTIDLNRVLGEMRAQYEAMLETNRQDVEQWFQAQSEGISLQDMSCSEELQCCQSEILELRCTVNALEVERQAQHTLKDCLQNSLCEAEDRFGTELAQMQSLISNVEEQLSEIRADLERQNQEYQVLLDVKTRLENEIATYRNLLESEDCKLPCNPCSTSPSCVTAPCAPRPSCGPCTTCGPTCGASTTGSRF
B5: Vacuolar-sorting protein SNF8 (Homo sapiens), Q96H20 (parent)
chain: MHRRGVGAGAIAKKKLAEAKYKERGTVLAEDQLAQMSKQLDMFKTNLEEFASKHKQEIRKNPEFRVQFQDMCATIGVDPLASGKGFWSEMLGVGDFYYELGVQIIEVCLALKHRNGGLITLEELHQQVLKGRGKFAQDVSQDDLIRAIKKLKALGTGFGIIPVGGTYLIQSVPAELNMDHTVVLQLAEKNGYVTVSEIKASLKWETERARQVLEHLLKEGLAWLDLQAPGEAHYWLPALFTDLYSQEITAEEAREALP
partner: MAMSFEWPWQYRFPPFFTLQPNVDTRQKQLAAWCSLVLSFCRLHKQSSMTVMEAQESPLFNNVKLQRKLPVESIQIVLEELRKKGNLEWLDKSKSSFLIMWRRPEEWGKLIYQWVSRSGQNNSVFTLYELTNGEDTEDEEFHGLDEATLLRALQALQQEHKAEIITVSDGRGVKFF

Variants of: B1
Conditions: with mtg8_human RUNX1T1, Q06455

effect of a mutation on the interaction | Variant
with no effect | A174V
with no effect | G300S
with no effect | I11M
with no effect | A458V
with no effect | D565V
with no effect | G64R

Variants of: B2
Conditions: with wasc3_human WASHC3, Q9Y3C0

effect of a mutation on the interaction | Variant
with no effect | S514R
with no effect | P541S

Variants of: B3
Conditions: with cog2_human COG2, Q14746

effect of a mutation on the interaction | Variant
with no effect | A89V

Variants of: B4
Conditions: with krt38_human KRT38, O76015

effect of a mutation on the interaction | Variant
with no effect | I527T

Variants of: B5
Conditions: with vps25_human VPS25, Q9BRG1

effect of a mutation on the interaction | Variant
with no effect | A17T
